Laboratory results taken from US6277617A, “Chemically modified enzymes” (Genencor International, Inc., priority 1997, dated 2001).

Substrate: C[C@H](NC(=O)CCC(=O)O)C(=O)N[C@@H](C)C(=O)N1CCC[C@H]1C(=O)N[C@@H](Cc1ccccc1)C(=O)Nc1ccc([N+](=O)[O-])cc1
Test: Hydrolysis of succinyl-L-Ala-L-Ala-L-Pro-L-Phe-p-nitroanilide, kinetic parameters
Format: biochemical, Bacillus lentus
Conditions: pH 7.5, 0.1 M sodium phosphate, 0.5 M NaCl, 1% DMSO, 25° C.
Method: Activity, including the kinetic parameters kcat, KM, and kcat /KM were measured for hydrolysis of the synthetic peptide substrate succinyl-L-Ala-L-Ala-L-Pro-L-Phe-p-nitroanilide using the method described in Bonneau, P. et al. (1991) J. Am. Chem. Soc., 113(3):1030. Briefly, a small aliquot of subtilisin variant stock solution was added to a 1 cm cuvette containing substrate dissolved in 0.1 M sodium phosphate buffer, pH 7.5, containing 0.5 M NaCl and 1% DMSO, and thermostated at 25° C. or similarly at pH 8.6, 0.1 M tris buffer containing 0.05% Tween™80 and 1% DMSO. The reaction progress was followed spectrophotometrically by monitoring the absorbance of the reaction product p-nitroaniline at 410 nm using a Perkin Elmer λ2 spectrophotometer (Δε410 8800 M^-1 cm^-1).
The modified enzymes were prepared as described above after site-directed mutagenesis to replace the amino acid of interest with a cysteine. The kinetic parameters were determined at pH 7.5 as described above. The precursor protease was a Bacillus lentus subtilisin (SBL-WT).
To examine the effects of chemical modification on the pH profile of SBL, seven modified N62C mutants were made as described above. 0.02M ethylene diamine buffers of ionic strength 0.05M (adjusted with KCl) were employed with 1.25×10^-4 M succinyl-AAPF-pNA substrate and Kcat /KM measurements were performed as described above. Kcat /KM reflects the pKa of His64, part of the catalytic triad for SBL, in the free enzyme and is unaffected by nonproductive binding modes. Fersht, A. E. (1985) Enzyme Structure and Mechanism 2 ed., Freeman (New York). pKa was calculated using Graphit (McGeary & Associates, Middletown Conn.). The shift in pKa reflects a shift in the pH profile of SBL. Representative pH profiles for SBL N62C-Scylcohexyl (N62C-Scy) and SBL-WT are shown in FIG. 3 ([E]=1×10^-7 to 5×10^-8 M at 25° C.). Points were done in duplicate.

Protein | Km (other: SBL-WT) [µM] | kcat (other: SBL-WT) [s⁻¹] | kcat/Km (other: SBL-WT) [M⁻¹ s⁻¹] | Km (other: N62C) [µM] | kcat (other: N62C) [s⁻¹] | kcat/Km (other: N62C) [M⁻¹ s⁻¹]
Bacillus lentus subtilisin, wild type (SBL-WT) (Lederbergia lenta) (protein, made in house; host or cells: B. subtilis) AQSVPWGISRVQAPAAHNRGLTGSGVKVAVLDTGISTHPDLNIRGGASFVPGEPSTQDGNGHGTHVAGTIAALNNSIGVLGVAPSAELYAVKVLGASGSGSVSSIAQGLEWAGNNGMHVANLSLGSPSPSATLEQAVNSATSRGVLVVAASGNSGAGSISYPARYANAMAVGATDQNNNRASFSQYGAGLDIVAPGVNVQSTYPGSTYASLNGTSMATPHVAGAAALVKQKNPSWSNVQIRNHLKNTATSLGSTNLYGSGLVNAEAATR | 550 | 48 | 87000 | – | – | –
Bacillus lentus subtilisin (SBL) variant N62C (Lederbergia lenta; N60C) (protein, made in house; host or cells: B. subtilis) AQSVPWGISRVQAPAAHNRGLTGSGVKVAVLDTGISTHPDLNIRGGASFVPGEPSTQDGCGHGTHVAGTIAALNNSIGVLGVAPSAELYAVKVLGASGSGSVSSIAQGLEWAGNNGMHVANLSLGSPSPSATLEQAVNSATSRGVLVVAASGNSGAGSISYPARYANAMAVGATDQNNNRASFSQYGAGLDIVAPGVNVQSTYPGSTYASLNGTSMATPHVAGAAALVKQKNPSWSNVQIRNHLKNTATSLGSTNLYGSGLVNAEAATR | – | – | – | 1490 | 61 | 41000
